This is an account of results in patent US20220372114A1 (published 2022).

Residue numbers refer to the chain shown, from its start.

B1: 8-L17-A (antibody, V domains shown)
VH: EVQLVESGGGLVQPKGSLKLSCAASGFTFNTYAMHWVRQAPGKGLEWVARIRSKSSNYARYYADSVKDRFTISRDDSQSMLYLQMNNLKTEDTAMYYCVRDHDYYGSSYWFAYWGQGTLVTVSA
VL: DVVMTQTPLSLPVSLGDQASISCRSSQSLVHNNGNTYLHWYLQKPGQSPKLLIYKVSNRFSGVPDRFSGSGSGTDFTLKISRVEAEDLGVYFCSQSTHVPWTFGGGTKLEIK
B2: 8-H3-A (antibody, V domains shown)
VH: B1 VH with R60T, A112T
VL: B1 VL with N32D, Y41F, A85T
B3: 1-L10-A (antibody, V domains shown)
VH: EVKLEESGGGLVQPGGSMKLSCVASGFTFNNYWMNWVRQSPEKGLEWVAQMRLKSDNYATHYAESVKGRFTISRDDSKSSVYLQMNNLRAEDTGIYYCIEGYWTYWGQGTLVTVSA
VL: QIVLTQSPAIMSASLGERVTMTCTASSSVSSSYLHWYQQKPGSSPKLWIYSTSNLASGVPARFSGNGSGTSYSLTISSMEAEDAATYYCLQYHRSPPYTFGGGTKLEIK
B4: 4-L4-A (antibody, V domains shown)
VH: QAYLQQSGAELVRPGASVKMSCKASGYTFTSYTVHWVKQTPRQGLEWIGGIYPGNVDTSYNQNFKGKATLTVDKSSSTAYMQLSSLTSEDSAVYFCARDGYYAMDYWGQGTSVTVSS
VL: not shown
B5: 2-O12-A (antibody, V domains shown)
VH: EVQLQQSGPELVKPGASVKISCKASGYTFTDYYMNWVKQSHGKSLEWIGDINSNNGGTTYDQKFKGKATLTVDRSSSTAYMELRSLTSEDSAVYYCARRGDGHFGGFTYWGQGTLVTVSA
VL: not shown
B6: 3-E2-A (antibody, V domains shown)
VH: B5 VH with S53P, T59S, D61T, R74K, T78K, F104Y
VL: not shown
B7: 8-H5-A (antibody, V domains shown)
VH: QVTLKESGPGILQSSQTLSLTCSLSGFSLSTSGMGVSWVRQPSGKGLEWLAHIYWDDDKRYTPSLKSRLTISTDSSRKQVFLKITSVDTADTATYYCARRDLHDYDGWFAYWGQGTLVTVSA
VL: DIVMTQSQKFMSTAVGDRVSVTCKASQNVGTNVAWYQQKPGQSPKALIYSASFRYSGVPDRFSGSGSGTDFTLTISNVQSEDLAEYFCQQYNSYPLTFGSGTKLEIK
B8: 6-O12-A (antibody, V domains shown)
VH: QVQLQQPGTELVKPGASVKLSCKASGYTFTSYWMHWVKQRPGQGLEWIGNINPSNGGTNYNEKFRSKATLTVDKSSSTAYMQLSSLTSEDSAVYYCARLGWFLPLGSWGQGTTLTVSS
VL: QIVLTQSPAIMSASLGEVITLTCSASSSVSYMHWYQQKSGTSPKLLIYSTSNLASGVPSRFSGSGSGTFYSLTISSVEAEDAADYYCHQWSGYMYTFGGGTKLEIK
B9: 3-P7-A (antibody, V domains shown)
VH: QAYLQQSGAELVRPGASVKMSCKASGYTFTSYSMHWVKQTPRQGLEWIGAIYPGNDDTSYNQKFKGKATLTVDKSSSTAYMQLSSLTSEDSAVYFCTRDYTNYPFDYWGQGTTLTVSS
VL: DIVLTQSPASLPVSLGQRATISCRASKSVSTSGYSYMHWYQQRPGQPPKLLIYLASNLESGVPARFSASGSGTDFTLNIHPVEEEDAATYYCQHSRELPPTFGGGTKVEIK
B10: 9-K4-A (antibody, V domains shown)
VH: B9 VH with T30P, S31N, M34F, K63R, T97A, T101S, Y107C
VL: B9 VL with P12A, R43K, A68G, V108L
B11: 10-O24-A (antibody, V domains shown)
VH: B9 VH with K74R, T101S
VL: B9 VL with P12A, S14F, A68G, V108L
B12: 2-H7-A (antibody, V domains shown)
VH: QAYLQQSGAELVRPGASVKMSCKASGYTFTGYTMHWVKQTPRQGLEWIGAIYPENGDTSYNQKFKGKATLTVDKSSSTAYMQLSSLTSEDSAVYFCARDGYDVLYGMDYWGQGTSVTVSS
VL: B9 VL with P12A, R43K, A68G, P100W, V108L, E109D
B13: 2-G20-A (antibody, V domains shown)
VH: EVQLQQSGPELVKPGASVKMSCKASGYTFPSYVLHWVKQKPGQGLEWIGYIYPYNDGTNYNEKFKGKATLTSDKSSSTAYMELSSLTSEDSAVYYCARGDYGDSAWFPYWGQGTLVTVSA
VL: B9 VL with P12A, R43K, E59K, A68G, S69G, H94L, P100W, V108L
B14: 9-F6-A (antibody, V domains shown)
VH: EVQLQQSGPELVKPGASVKMSCKASGYTFTSYIMHWVKQKPGQGLEWIGYILPYNDGTKYNEKFKGKATLTSDKSSSTAYMELRSLTSEDSAVYYCARWGYSNFLDSWGQGTTLTVSS
VL: DIQMTQTTSSLSASLGDRVTISCRASQDINNYLNWYQQKPDGTVKLLIYYTSRLHSGVPSRFSGSGSGTDYSLTIRNLEQEDIATYFCQQGNTLPPTFGGGTKLEIK
B15: 4-M3-A (antibody, V domains shown)
VH: EVQLQQSGPELVKPGDSVKISCKASGYSFTGYFMNWVMQSHGKSLEWIGRINPNNGETFYNQKFKGKATLTVDKSSDTAHMELRSLTSEDSAVYYCARGGTGTGWGQGTTLTVSS
VL: DILMTQSPSSMSVSLGDTVSITCHASQGISSNIGWLQQKPGKSFKGLIYYGTNLEDGVPSRFSGSGSGADYSLTISSLESEDLADYYCIQYAQFPYTFGGGTKLEIK
B16: 4-N22-A (antibody, V domains shown)
VH: QVQLQQPGTELVKPGASVKLSCKASGYTFTNYWMYWVKQRPGQGLDWIGNINPSNGGTNYNEKFKSKATLTVDKSSSTAYMQLSSLTSEDSAVYYCARETGNYWGQGTTLTVSS
VL: B15 VL with T22S, Y50H, L83F, I89V
B17: 8-A17-A (antibody, V domains shown)
VH: QVQLKESGPGLVAPSQSLSITCTVSGFSLTSYAISWVRQPPGKGLEWLGVVWPGGGTNYNSALKSRLSINKDNSKSQVFLKMNSLQTDDTGRYYCARTGYHFDYWGQGTTLTVSS
VL: QIVLTQSPAIMSASPGEKVTMTCSVSSSVSYMHWYQQKSGTSPKRWIYDTSKLASGVPARFSGSGSGTSYSLTISSMEAEDAATYYCQQWSSNPPMYTFGGGTKLEIK
B18: 2-P2-A (antibody, V domains shown)
VH: EVQLQQSGAELVRPGSSVKMSCKTSGYTFTSYGINWVKQRPGQGLEWIGYIYIGNGYTEYNEKFKGKATLTSDTSSSTAYMQLSSLTSEDSAIYFCARGGVDYWGQGTTLTVSS
VL: B1 VL with V3L, L29I, N32S, H39E, F92Y, S94F, S96G, T97S, W101Y
B19: 1-B11-A (antibody, V domains shown)
VH: QVQLQQSGPELVKPGASVKISCKASGYTFTDHYINWVKQRPGQGLEWIGWIFPGSGSTYYNEQFKGKATLTVDKSSNTAYMLLSSLTSEDSAVYFCARSGGLRLGFAYWGQGTLVTVSA
VL: B14 VL with N30S, R76S, A84S, G91V, P96Y
B20: 10-B13-A (antibody, V domains shown)
VH: QVQLQQSGAELVKPGASVKISCKASGYAFSNYWMNWVKQRPGKGLEWIGQIYPGDGDTNYNGNFKGKATLTADKSSSTAYIQLSSLTSEDSAVYFCGRGFIATVVEVFDHWGLGTTLTVSS
VL: B14 VL with N30S, H55Q, S67T, R76S, P96W

The target in the first assay is SARS-CoV-2 (WIV02 isolate) prefusion stabilized spike trimer protein (UniProt P0DTC2 14-1213). The experiment in a line: ELISA. A general note: ELISA stands for enzyme-linked immunosorbent assay.
Usually IC50 stands for the midpoint of a concentration-inhibition curve. B1: the IC50 came out at 60.8 nM.

B2 registered an IC50 of 19.4 nM.

Molecule B3 registered an IC50 of 8.65 nM.

Take B4: inhibition was half-maximal at 8.34 nM (IC50).

For B5, the IC50 was 14.9 nM.

In turn, B6 displayed an IC50 of 18.4 nM.

The molecule B7 registered an IC50 of 12.8 nM.

For B8, half-maximal inhibition (IC50) was put at 7.62 nM.

In turn, B9 returned an IC50 of 8.86 nM.

Regarding B10, inhibition was half-maximal at 72.6 nM (IC50).

For the molecule B11, the IC50 stood at 5.84 nM.

For B12, the IC50 amounted to 7.21 nM.

Turning to B13, the IC50 turned out to be 18.3 nM.

As for B14, the IC50 stood at 16.7 nM.

B15: the midpoint of inhibition, the IC50, lay at 7.36 nM.

As to B16, the IC50 turned out to be 4.93 nM.

In the next assay the target is SARS-CoV-1 Spike (SARS-CoV-1, UniProt P59594 14-1195). The assay is described as follows: ELISA.
Consider B17, for which the IC50 was 5.1 nM.

In turn, B18 showed an IC50 of 17.9 nM.

For the molecule B3, the IC50 is 7.5 nM.

On to B8, for which 5.4 nM corresponded to half-maximal inhibition (IC50).

Take B13: the IC50 is 6.65 nM.

The molecule B19 gave an IC50 of 20.9 nM.

Molecule B20 had an IC50 of 19.4 nM.

Take B14: the IC50 was found to be 5.55 nM.
